Reference: the supplement of paper PMC10724198
± gives the standard deviation of the averaged measurements.

System: Saccharomyces cerevisiae
Experiment: protein stability index of tFT-peptide fusion (C-terminal peptide) (PSI (0-1 scale)); higher = more stable (slower turnover)
Settings: temperature: 30 C
Procedure: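 MPS profiling in S. cerevisiae of the yeast C-terminome library: the last 12 aa of each annotated ORF are fused to the C-terminus of a sfGFP-mCherry timer, after a GGGS linker. Cells are FACS-sorted into 8 mCherry/sfGFP bins and deep-sequenced. PSI runs from 0 (unstable) to 1 (stable); wild type and das1Δ backgrounds, two technical replicates each.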

[1] = genetic background: das1 deletion

Sequence	protein stability index [1]	protein stability index (genetic background: wild type)
LKRISDIQADSS [PET494 C-terminal 12 aa]	0.692 ± 0.031	0.6987 ± 0.0012
TPGGGGFGQYKD [OXP1 C-terminal 12 aa]	0.7088 ± 0.00061	0.677 ± 0.03
LASEAAVGCNKS [YKL156C-A C-terminal 12 aa]	0.688 ± 0.0092	0.745 ± 0.055
FKMCPFFISWFL [YBL073W C-terminal 12 aa]	0.6013 ± 0.0016	0.563 ± 0.032
LPEPNFFRKAAF [AXL1 C-terminal 12 aa]	0.7202 ± 0.0035	0.7 ± 0.015
EPRYNDDAQVSD [KCS1 C-terminal 12 aa]	0.684 ± 0.018	0.663 ± 0.064
LLPGNTNLPWTS [ERG12 C-terminal 12 aa]	0.7093 ± 0.0045	0.742 ± 0.08
EIKHVFTGVYGG [ASP1 C-terminal 12 aa]	0.68 ± 0.006	0.686 ± 0.0042
ESEKELYNATLA [NHP6A C-terminal 12 aa]	0.697 ± 0.011	0.718 ± 0.0079
GPSIIMTLYLTL [ARE1 C-terminal 12 aa]	0.496 ± 0.021	0.5045 ± 0.0024
NKNKNKVTKGRR [RAD27 C-terminal 12 aa]	0.668 ± 0.024	0.672 ± 0.026
LNKKREKKDETE [CSM1 C-terminal 12 aa]	0.707 ± 0.038	0.718 ± 0.055
RKLFLVVKDNIL [JIP3 C-terminal 12 aa]	0.695 ± 0.016	0.734 ± 0.015
IPAYKKHGIQKN [OSH7 C-terminal 12 aa]	0.694 ± 0.012	0.693 ± 0.038
KDAFLKELGLQN [PRD1 C-terminal 12 aa]	0.69 ± 0.013	0.678 ± 0.028
NDEEKQALAEKA [YLR297W C-terminal 12 aa]	0.683 ± 0.011	0.6834 ± 0.0067
IFKKIRLLLHVN [MCP1 C-terminal 12 aa]	0.615 ± 0.013	0.2 ± 0.03
ENNEKFLNIRLY [CDC24 C-terminal 12 aa]	0.71 ± 0.026	0.668 ± 0.013
EDIKQALKQATN [CYS3 C-terminal 12 aa]	0.6902 ± 0.0052	0.654 ± 0.023
LLRPPKPPLFCC [YGL123C-A C-terminal 12 aa]	0.6368 ± 0.0044	0.418 ± 0.032
TYQLIEKNRNSK [BLS1 C-terminal 12 aa]	0.692 ± 0.019	0.678 ± 0.01

Sequence	protein stability index [1]	protein stability index (genetic background: wild type)
NSTSSKDKKKKN [SES1 C-terminal 12 aa]	0.707 ± 0.008	0.7314 ± 0.0025
MKHTKKLQLDKV [PKP2 C-terminal 12 aa]	0.69 ± 0.007	0.696 ± 0.024
MRNNNDTTFKSF [YNL013C C-terminal 12 aa]	0.685 ± 0.015	0.698 ± 0.02
SVLSGSAEFVFY [NCA3 C-terminal 12 aa]	0.7188 ± 0.0024	0.7148 ± 0.0061
ISKKVFGNKLHQ [MTM1 C-terminal 12 aa]	0.709 ± 0.0014	0.656 ± 0.022
VVQFLVNLVCHT [YGR114C C-terminal 12 aa]	0.4879 ± 0.0042	0.487 ± 0.011
VDAKIKKQMNRH [YJR124C C-terminal 12 aa]	0.694 ± 0.011	0.682 ± 0.0093
LWDNKPVEKKRQ [SHH4 C-terminal 12 aa]	0.712 ± 0.023	0.72 ± 0.027
TGFKDKFLDALL [PUT4 C-terminal 12 aa]	0.689 ± 0.014	0.69 ± 0.011
EDGDNWEVVGKK [TIF3 C-terminal 12 aa]	0.7056 ± 0.0056	0.727 ± 0.012
KQSKKKTSFTRF [YBL028C C-terminal 12 aa]	0.699 ± 0.036	0.66155 ± 0.00019
LPPGRVFSRVRR [MRPL35 C-terminal 12 aa]	0.683 ± 0.022	0.666 ± 0.012
LSEEALSTCCCS [YJL118W C-terminal 12 aa]	0.7528 ± 0.0039	0.738 ± 0.047
LHMNTNRLAGIR [SEC9 C-terminal 12 aa]	0.7133 ± 0.0013	0.718 ± 0.018
DLIESTFRSITQ [PAN3 C-terminal 12 aa]	0.7194 ± 0.0067	0.7049 ± 0.0029
TKLGEQRHLCTD [ESL2 C-terminal 12 aa]	0.698 ± 0.019	0.7 ± 0.013
YTSKSFSPASSE [YMR181C C-terminal 12 aa]	0.704 ± 0.031	0.668 ± 0.022
FYVCYQLYHLVF [DPM1 C-terminal 12 aa]	0.355 ± 0.012	0.347 ± 0.022
RCSETKQQVMNS [BTT1 C-terminal 12 aa]	0.669 ± 0.033	0.691 ± 0.0026
LYSLPISVPCTS [YDL086C-A C-terminal 12 aa]	0.292 ± 0.013	0.313 ± 0.018
